Reference: article PMC8915953 (Frontiers in Microbiology, 2022)

Molecular target: T1, IFITM3-C-LgBiT (human, UniProt Q01628 1-133)
T1 construct: also called C-terminal tagged IFITM3; not shown: LgBiT, C-terminal, kept
Experiment: split reporter (BiFC, NanoBiT)
Details: partners not purified

T1 sequence (Q01628 whole entry): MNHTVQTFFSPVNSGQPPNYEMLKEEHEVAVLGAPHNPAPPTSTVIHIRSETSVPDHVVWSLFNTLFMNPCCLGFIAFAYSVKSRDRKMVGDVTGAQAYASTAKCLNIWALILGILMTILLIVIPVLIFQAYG

B1: ZMPSTE24-C-SmBiT (natural protein, human, UniProt O75844 1-475, looked up)
chain: MGMWASLDALWEMPAEKRIFGAVLLFSWTVYLWETFLAQRQRRIYKTTTHVPPELGQIMDSETFEKSRLYQLDKSTFSFWSGLYSETEGTLILLFGGIPYLWRLSGRFCGYAGFGPEYEITQSLVFLLLATLFSALTGLPWSLYNTFVIEEKHGFNQQTLGFFMKDAIKKFVVTQCILLPVSSLLLYIIKIGGDYFFIYAWLFTLVVSLVLVTIYADYIAPLFDKFTPLPEGKLKEEIEVMAKSIDFPLTKVYVVEGSKRSSHSNAYFYGFFKNKRIVLFDTLLEEYSVLNKDIQEDSGMEPRNEEEGNSEEIKAKVKNKKQGCKNEEVLAVLGHELGHWKLGHTVKNIIISQMNSFLCFFLFAVLIGRKELFAAFGFYDSQPTLIGLLIIFQFIFSPYNEVLSFCLTVLSRRFEFQADAFAKKLGKAKDLYSALIKLNKDNLGFPVSDWLFSMWHYSHPPLLERLQALKTMKQH
notes: also called C-terminal tagged ZMPSTE24; not shown: SmBiT, C-terminal, kept
luminescence relative to the negative control pairs: ~12 fold
